Positions count from the first letter of the chain named.

Here are results for 30 molecules from patent US20210380703A1 (RIGEL PHARMACEUTICALS, published 2021).

B1: 370_A03 (antibody, V domains shown)
VH: EVQLLESGGGLVQPGGSLRLSCAASGFTFSSYSMNWVRQAPGKGLEWVSNINYNGGYTSYADSVKGRFTISRDNSKNTLYLQMNSLRAEDTAVYYCARSANWHDTALDYWGQGTLVTVSS
VL: DIQMTQSPSSLSASVGDRVTITCRASQSILSYLNWYQQKPGKAPKLLIYAATSRASGVPSRFSGSGSGTDFTLTISSLQPEDFATYYCQQSYDSPLTFGGGTKVEIK
B2: 367_C11 (antibody, V domains shown)
VH: B1 VH with S30D, N50S, G55S, S59G, A106H
VL: B1 VL with L47V, A55H, D93N, S94T
B3: 367_C05 (antibody, V domains shown)
VH: B1 VH with S30D, S31D, S33G, N50S, S59G, A106H
VL: B1 VL with L33V, L47V, A55H, S94L
B4: 367_C01 (antibody, V domains shown)
VH: B1 VH with S30D, S31D, N50G, T58K, A106H
VL: B1 VL with S31T, L47V, A51T, R54L, A55H, S94T
B5: 373_G06 (antibody, V domains shown)
VH: B1 VH with S33G, N35H, S49A, N50S, G55S, S59G, S99A, N101T, A106H
VL: B1 VL with L33V, R54L, D93N, S94L
notes: Group II
B6: 365_E10 (antibody, V domains shown)
VH: B1 VH with S30D, N50S, G55S, T58K, S59G, S99G, A106H
VL: not shown
notes: Group III
B7: 376_D08 (antibody, V domains shown)
VH: B1 VH with S30D, S33G, S49A, G55S, T58K, S99A, N101T
VL: B1 VL with S31T, L47V, A50Y, T52N, S53N, A55P, D93S, S94N
notes: Group II
B8: 366_A06 (antibody, V domains shown)
VH: B1 VH with S31D, S49A, N50S, T58K, S99G, A106H
VL: not shown
notes: Group III
B9: 365_B10 (antibody, V domains shown)
VH: B1 VH with S30D, S31D, N35H, S49A, N50S, G55S, T58K, S59G, S99A
VL: B1 VL with S31R, Y92D, D93N, S94L
notes: Group I
B10: 366_B05 (antibody, V domains shown)
VH: B1 VH with S31D, N50G, G55S, T58K, S99G
VL: B1 VL with L30S, L47V, A51V, D93E, S94L
notes: Group III
B11: 375_A11 (antibody, V domains shown)
VH: B1 VH with S31D, S33G, N35H, N50S, G55S, T58K, S99A
VL: B1 VL with L30V, A50Y, A51V, S53N, R54L, S94N
notes: Group I
B12: 366_A08 (antibody, V domains shown)
VH: B1 VH with S30D, S31D, N50G, G55S, T58K, S59G, S99G, A106H
VL: B1 VL with L30V, L33V, L47V, D93N
notes: Group III
B13: 375_A04 (antibody, V domains shown)
VH: B1 VH with S30D, S33G, S49A, N50G, T58K, S99A
VL: B1 VL with S31T, L47V, A50Y, A51V, T52N, S53N, R54L, A55P, D93N
notes: Group I
B14: 371_D07 (antibody, V domains shown)
VH: B1 VH with S30D, S31D, S33G, S49A, T58K, S59G, S99A, A106H
VL: B1 VL with S31T, L47V, D93E, S94L
notes: Group I
B15: 374_B07 (antibody, V domains shown)
VH: B1 VH with S33G, N35H, N50S, T58K, S99A, N101T, A106H
VL: B1 VL with L30I, R54L, D93E
notes: Group II
B16: 374_B02 (antibody, V domains shown)
VH: B1 VH with S30D, N35H, S49A, N50G, G55S, S99A, A106H
VL: B1 VL with L30I
notes: Group I
B17: 374_F03 (antibody, V domains shown)
VH: B1 VH with S33G, S49A, N50S, S99A, A106H
VL: B1 VL with L30I, L33V, L47V, S94T
notes: Group I
B18: 374_B01 (antibody, V domains shown)
VH: B1 VH with S30D, S33G, N35H, S49A, N50G, G55S, S99A, N101T, A106H
VL: B1 VL with T52S, R54L, A55Q
notes: Group II
B19: 376_G02 (antibody, V domains shown)
VH: B1 VH with S31D, S33G, N50G, S99A
VL: B1 VL with L30S, S31R, L47V, R54L, S94N
notes: Group I
B20: 375_D02 (antibody, V domains shown)
VH: B1 VH with S99A, N101T, A106H
VL: B1 VL with S31T, T52S, R54L, A55Q, D93E, S94L
notes: Group II
B21: 375_G08 (antibody, V domains shown)
VH: B1 VH with S33G, N35H, N50G, S99A, N101T, A106H
VL: B1 VL with L30S, L33V, A51V, D93S, S94T
notes: Group II
B22: 376_H12 (antibody, V domains shown)
VH: B1 VH with S31D, S33G, N35H, S49A, N50S, S99A, N101T, A106H
VL: B1 VL with L30I, S31T, L47V, D93E
notes: Group II
B23: 375_C10 (antibody, V domains shown)
VH: B1 VH with S33G, N35H, S49A, N50S, S99A
VL: not shown
notes: Group I
B24: 374_A12 (antibody, V domains shown)
VH: B1 VH with S30D, S33G, N35H, N50S, S99A, N101T, A106H
VL: B1 VL with S31T, Y92D, D93S, S94N
notes: Group II
B25: 376_F09 (antibody, V domains shown)
VH: B1 VH with S30D, N35H, N50S, T58K, S99A, N101T, A106H
VL: B1 VL with S31T, L33V, A51V, S94T
notes: Group II
B26: 375_F12 (antibody, V domains shown)
VH: B1 VH with S30D, S33G, N35H, S49A, N50S, S99A
VL: B1 VL with S31T, L47V, Y92D, D93E, S94L
notes: Group I
B27: 375_C03 (antibody, V domains shown)
VH: B1 VH with S30D, N35H, N50G, S99A, N101T, A106H
VL: B1 VL with L33V, L47V, D93E
notes: Group II
B28: 375_H04 (antibody, V domains shown)
VH: B1 VH with S33G, N35H, S49A, N50G, G55S, S59G, S99A, N101T, A106H
VL: B1 VL with L47V, D93S, S94N
notes: Group II
B29: 374_H02 (antibody, V domains shown)
VH: B1 VH with S33G, N35H, S49A, N50S, S99A, N101T, A106H
VL: B1 VL with L33V, R54L, S94T
notes: Group II
B30: 375_H01 (antibody, V domains shown)
VH: B1 VH with S31D, S49A, N50G, G55S, S99A, A106H
VL: B1 VL with S31T, A55H, D93S, S94N
notes: Group I
Note: test concentration or dose not given here.

Sequence of Mouse ACVR2A (P27038 20-135 limits assumed): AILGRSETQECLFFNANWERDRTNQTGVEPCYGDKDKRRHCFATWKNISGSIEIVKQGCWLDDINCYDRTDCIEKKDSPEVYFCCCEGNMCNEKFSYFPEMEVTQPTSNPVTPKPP
T3 sequence (P27037 20-135 limits assumed): as the sequence (P27038 20-135 limits assumed) above, with R20K, I73V counted along it

The first assay addresses T1, Goat anti-Human Kappa.
T1 construct: Positive control of the ELISA; also called biotinylated goat anti-human kappa light chain
The assay can be described thus: ELISA, positive control. In a few lines:
(§1)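 ELISA measured binding of ACVR2A-specific monoclonal antibodies to human and mouse ACVR2A. Biotinylated goat anti-human kappa light chain served as positive control and human Fc as negative control.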
Background: ELISA stands for enzyme-linked immunosorbent assay.
B1 registered an optical density of 3.56 OD.
On the same count and under the same terms, then B2, with 3.45 OD; and B3, with 3.42 OD; and B4, with 3.71 OD.

In another assay the target is T2, biotinylated goat anti-human kappa light chain.
T2 construct: positive control of the ELISA
The assay can be described thus: ELISA, positive control. Summed up:
as §1
B5 showed an optical density of 3.23 OD.
On the same count and under the same terms, then B6, with 3.34 OD; and B7, with 3.47 OD.
Same read-out and setting: then B8, with 3.24 OD; and B9, with 3.21 OD; and B10, with 2.96 OD.
Still for that read-out and setting: then B11, with 3.05 OD; and B12, with 3.23 OD; and B13, with 3.1 OD.
In turn, B14 showed an optical density of 3.59 OD.
Same read-out and setting: the result for B15 reads 3.29 OD; that for B16, 3.02 OD.
The same measure, in the same setting: the result for B17 reads 3.23 OD; that for B18, 2.92 OD.
On the same count and under the same terms, the result for B19 reads 3.55 OD.
B20 gave an optical density of 3.2 OD.
On the same count and under the same terms, then B21, with 3.27 OD; and B22, with 3.49 OD; and B23, with 3.33 OD.
Still for that read-out and setting: then B24, with 3.06 OD; and B25, with 3.35 OD; and B26, with 3.17 OD.
Still for that read-out and setting: then B27, with 3.16 OD; and B28, with 3.15 OD; and B29, with 3.18 OD.
Molecule B30 showed an optical density of 3.1 OD.

A further assay concerns the target Mouse ACVR2A (mouse, UniProt P27038 20-135, limits assumed). Kind of assay: ELISA. In a few lines:
as §1
B1 had an optical density of 3.63 OD.
The same measure, in the same setting: then B2, with 2.54 OD; and B3, with 2.86 OD.
Take B4: the optical density worked out at 2.99 OD.

In a further assay the target is mouse ACVR2A (mouse, UniProt P27038 20-135, limits assumed). The assay can be described thus: ELISA. In a few lines: as §1
Sequence of mouse ACVR2A (P27038 20-135 limits assumed): as the sequence (P27038 20-135 limits assumed) above
The molecule B5 yielded an optical density of 3.52 OD.
The same measure, in the same setting: the result for B6 reads 2.05 OD; that for B7, 3.71 OD; that for B8, 2.25 OD.
Still for that read-out and setting: then B9, with 2.78 OD; and B10, with 2.46 OD; and B11, with 3.7 OD.
Still for that read-out and setting: then B12, with 1.73 OD.
In turn, B13 registered an optical density of 3.73 OD.
Same read-out and setting: the result for B14 reads 2.9 OD; that for B15, 3.71 OD; that for B16, 3.54 OD.
Same read-out and setting: the result for B17 reads 3.62 OD; that for B18, 3.37 OD.
Regarding B19, the optical density was found to be 3.7 OD.
Turning to B20, the optical density was found to be 3.56 OD.
The same measure, in the same setting: the result for B21 reads 3.43 OD.
Same read-out and setting: the result for B22 reads 3.08 OD.
The same measure, in the same setting: the result for B23 reads 3.6 OD; that for B24, 3.26 OD.
B25 registered an optical density of 3.59 OD.
For B26, the optical density is 3.14 OD.
Same read-out and setting: the result for B27 reads 3.24 OD; that for B28, 3.16 OD; that for B29, 3.26 OD.
Still for that read-out and setting: then B30, with 3.06 OD.

Another assay addresses T3, Human ACVR2A (human, UniProt P27037 20-135, limits assumed).
T3 construct: also called activin receptor, type II A
Kind of assay: ELISA. In a few lines:
as §1
For the molecule B1, the optical density was 3.54 OD.
Same read-out and setting: the result for B2 reads 2.33 OD; that for B3, 2.21 OD; that for B4, 2.62 OD.

For another assay, the target named is T4, human ACVR2A (human, UniProt P27037 20-135, limits assumed).
T4 construct: also called activin receptor, type II A
T4 sequence (P27037 20-135 limits assumed): as the sequence (P27038 20-135 limits assumed) above, with R20K, I73V counted along it
Kind of assay: ELISA. In a few lines:
as §1
In turn, B5 gave an optical density of 3.4 OD.
Same read-out and setting: then B6, with 1.82 OD; and B7, with 3.81 OD; and B8, with 1.97 OD.
On the same count and under the same terms, then B9, with 2.82 OD; and B10, with 2.38 OD; and B11, with 3.73 OD.
On the same count and under the same terms, the result for B12 reads 1.65 OD.
In the case of B13, the optical density is 3.72 OD.
As for B14, the optical density is 2.66 OD.
Still for that read-out and setting: then B15, with 3.71 OD; and B16, with 3.42 OD.
Consider B17, for which the optical density came out at 3.53 OD.
The same measure, in the same setting: the result for B18 reads 3.14 OD; that for B19, 3.69 OD; that for B20, 3.63 OD.
Still for that read-out and setting: the result for B21 reads 3.33 OD; that for B22, 3.23 OD.
For B23, the optical density turned out to be 3.46 OD.
Same read-out and setting: the result for B24 reads 3.31 OD; that for B25, 3.5 OD.
Regarding B26, the optical density came to 2.95 OD.
Take B27: the optical density is 3 OD.
For the molecule B28, the optical density came out at 3.11 OD.
The same measure, in the same setting: then B29, with 3.26 OD.
Still for that read-out and setting: then B30, with 2.79 OD.
